PMC4741457, “Structural basis for the indispensable role of a unique zinc finger motif in LNX2 ubiquitination” (Oncotarget, 2015)
Substitutions are numbered along the chain they refer to.

B1: full-length LNX2 (enzyme, human, UniProt Q8N448 1-690, looked up)
chain: MGTTSDEMVSVEQTSSSSLNPLCFECGQQHWTRENHLYNYQNEVDDDLVCHICLQPLLQPLDTPCGHTFCYKCLRNFLQEKDFCPLDRKRLHFKLCKKSSILVHKLLDKLLVLCPFSSVCKDVMQRCDLEAHLKNRCPGASHRRVALERRKTSRTQAEIENENGPTLLDPAGTLSPEADCLGTGAVPVERHLTSASLSTWSEEPGLDNPAFEESAGADTTQQPLSLPEGEITTIEIHRSNPYIQLGISIVGGNETPLINIVIQEVYRDGVIARDGRLLAGDQILQVNNYNISNVSHNYARAVLSQPCNTLHLTVLRERRFGNRAHNHSDSNSPREEIFQVALHKRDSGEQLGIKLVRRTDEPGVFILDLLEGGLAAQDGRLSSNDRVLAINGHDLKYGTPELAAQIIQASGERVNLTIARPGKPQPGNTIREAGNHSSSSQHHTPPPYYSRPSSHKDLTQCVTCQEKHITVKKEPHESLGMTVAGGRGSKSGELPIFVTSVPPHGCLARDGRIKRGDVLLNINGIDLTNLSHSEAVAMLKASAASPAVALKALEVQIVEEATQNAEEQPSTFSENEYDASWSPSWVMWLGLPSTLHSCHDIVLRRSYLGSWGFSIVGGYEENHTNQPFFIKTIVLGTPAYYDGRLKCGDMIVAVNGLSTVGMSHSALVPMLKEQRNKVTLTVICWPGSLV
notes: Ligand of Numb protein-X 2 (LNX2), human, full length (last residue Val690); The methods say in general that MBP-tagged proteins were cleaved with TEV protease before size exclusion; MBP-tagged FL-LNX2 was used uncleaved in some ubiquitination assays; also called FL-LNX2; Ligand of Numb Protein-X 2; source: E. coli BL21 (DE3), purified (amylose sepharose, size exclusion)
B2: full-length LNX2 triple mutant (Lys109Ala, Ser688Asp, Val690Glu) (enzyme, human, UniProt Q8N448 1-690, looked up)
chain: B1 chain with K109A, S688D, V690E
notes: LNX2, human, full length, with Lys109Ala, Ser688Asp and Val690Glu; also called triple mutant of human FL-LNX2; source: E. coli BL21 (DE3), purified
B3: Zn-RING-Zn domain of LNX2 (aa 20-147) (domain or fragment, human, UniProt Q8N448 20-147, looked up)
chain: NPLCFECGQQHWTRENHLYNYQNEVDDDLVCHICLQPLLQPLDTPCGHTFCYKCLRNFLQEKDFCPLDRKRLHFKLCKKSSILVHKLLDKLLVLCPFSSVCKDVMQRCDLEAHLKNRCPGASHRRVAL
notes: Genes were cloned into pGEX6P-1 or pMAL; The last six residues are not in the crystallographic model; Four zinc ions per monomer; source: E. coli BL21 (DE3), purified (glutathione or amylose sepharose, tag cleaved, Superdex size exclusion)
B4: Zn-RING-Zn domain of LNX2 (aa 20-147) Asp45Ala (domain or fragment, human, UniProt Q8N448 20-147, looked up)
chain: B3 chain with D26A
notes: PDB 5DIN is the wild-type parent of the same limits; also called Asp45Ala mutant; source: E. coli BL21 (DE3), purified

Target: the molecule itself
Experiment: SEC; calibrated gel-filtration column (Superdex 75 or Superdex 200), each protein run alone

Protein	stoichiometry N	binding result
B1	2	
B2		binds
B3	2	
B4	2	
